Laboratory results as given in the DeepSol protein solubility set.

assay: soluble on expression in E. coli; label from the status in PepcDB or PDB records

| Sequence | soluble on expression in E. coli |
| --- | --- |
| MQDADKLPHTKVTLVAPPQVHPHEQATKSGPKVVEFTMTIEEKKMVIDDKGTTLQAMTFNGSMPGPTLVVHEGDYVQLTLVNPATNAMPHNVDFHGATGALGGAKLTNVNPGEQATLRFKADRSGTFVYHCAPEGMVPWHVVSGMSGTLMVLPRDGLKDPQGKPLHYDRAYTIGEFDLYIPKGPDGKYKDYATLAESYGDTVQVMRTLTPSHIVFNGKVGALTGANALTAKVGETVLLIHSQANRDTRPHLIGGHGDWVWETGKFANPPQRDLETWFIRGGSAGAALYTFKQPGVYAYLNHNLIEAFELGAAGHIKVEGKWNDDLMKQIKAPAPIPR | soluble |
| MQDEYYMARALKLAQRGRFTTHPNPNVGCVIVKDGEIVGEGYHQRAGEPHAEVHALRMAGEKAKGATAYVTLEPCSHHGRTPPCCDALIAAGVARVVASMQDPNPQVAGRGLYRLQQAGIDVSHGLMMSEAEQLNKGFLKRMRTGFPYIQLKLGASLDGRTAMASGESQWITSPQARRDVQLLRAQSHAILTSSATVLADDPALTVRWSELDEQTQALYPQQNLRQPIRIVIDSQNRVTPVHRIVQQPGETWFARTQEDSREWPETVRTLLIPEHKGHLDLVVLMMQLGKQQINSIWVEAGPTLAGALLQAGLVDELIVYIAPKLLGSDARGLCTLPGLEKLADAPQFKFKEIRHVGPDVCLHLVGA | soluble |
| MQDFDFSFNPKACEGCGAKCCVGESGYIFLNIQEMQQISAFLKLELEEFSQKYVKKVGYKFSLLEKDAKELGLACVFLDLETKKCQIYSVRPKQCQTFPFWEGVKTFSKEQKEAFCQSCPGITQKTKETKVRLEHHHHHH | not soluble |
| MQDLSAVKAFHALCQHKSLTAAAKALEQPKSTLSRRLAQLEEDLGQSLLMRQGNRLTLTKAGEVFAVYSEQLLELANKSQEALQELNNQVTGELTLVVHPNLIRGWLSQVLDEFMQQHSTLKIRLLSQFQHSDEVFEPDLIIWIEHAAPMGYRKERLGYWRYAAYASPKYLAHRDKPTHPRELIHHPWIDFIACRRAELELHHPEFGSYSLPALESRLQSDNLAMQADAIAKGRGIGLLPTWFANGFETAHPGSLIPCVNGWQSQPTEINCFYPLGRHPLRLRLFIDALRQARPDEWQ | not soluble |
| MQESAQFFNDTGVSMSMQGFHNEAIACLKKGLALEPDNSLMWLNLGLSYYAAKRQNDSKFALFQSLKYNPYEADAWDSLGLVLFETGDIDQAERAFESAIKLEPENGRVWNNYGTVLFNKENYRAARRAFESAVTLDPEMGDAVFNLRDTYLELGMNDLAERCNKILKEMDYQE | not soluble |
| MQEVPPDFEDVHIAEARVDVPSTWRDQIVNTNAVATETHPLKCAEVETQTGSKDNQGTQTDDAGGGRPPSPSKVQASGVADFMAKVEGMVAGELVKATEEHEVLEPFTRAADDEQEPATCIHYLSPFQQDAAANQDLNAT | soluble |
| MQFTDGGKEVELRLRLKTGEILSPKDISVDADGTSLAVKEKRNGLLITLLETNHLFEKIMPSETIWYIDEDQLVVNMKKVDGELKWPDIVESWESLTAGMMQLLKGASIYIVGDSTEINQKVSRELAVGLGYSPLDSKELLESFSKQTIDSWILAEGPDSVAEAESSVLESLSSHVRTVVSTLGGKHGAAGRADQWRHLYSGFTVWVSQTEATDEESAKEEARRSKQEREIGYSNADVVVKLQGWDPTHAKSVAQASLSALKQLIISDKGLPGNK | not soluble |
| MQGKALQDFVIDKIDDLKGQDIIALDVQGKSSITDCMIICTGTSSRHVMSIADHVVQESRAAGLLPLGVEGENSADWIVVDLGDVIVHVMQEESRRLYELEKLWS | soluble |
| MQGTRVMHIFVLSKRKITMNVDNVKSQMRKGMLEYCIMLLLHKEPAYASDIIQKLKEAQLIVVEGTLYPLLTRLKNDDLLSYEWVESTQGPPRKYYKLTEKGEAFLGELEISWKELNETVNHIASR | not soluble |
| MQGVLAGLPSGIPGIGLEIEGAVQHAPQPGRHSIRCSLKVNHRIDERAQYHLFCTSKSANTTCPKGPSRVLCRDIFDIFDYRNFSMPRANEIKKGMVLNYNGKLLLAKDIDIQSPTARGAATLYKMRFSDVRTGLKVEERFKGDDIVDTVTLTRRYVDFSYVDGNEYVFMDKEDYTPYTFTKDQIEEELLFMPEGGMPDMQVLTWDGQLLALELPQTVDLEIVETAPGIKGASASARNKPATLSTGLVIQVPEYLSPGEKIRIHIEERRYMGRAD | not soluble |
| MQIIRRLMFVVALICPLITQAEPQVAKLYQRELTRNSYAIGGLNAPVALFAAQVHQESQWNVTALSHVGAQGLAQFMPQTANWIATQYPELKTNQPFNPSWALRALVRYDYWLYQRIHAVTDCDRWAFALSAYNGGLGWVQRDKRKARIQGLDPMSYWHAVESVNSGRSRANFIENRGYPKRIIYRWQPLYLHWGNSVCLDD | not soluble |
| MQIITTTFIQKVILGSHQLHEQLSIVEARMIESAIVSMLTESFCENEQTLKYLARLLSPMSYMDVINARRGKKICGYPLCYKSAAENSSDGFFIHSMYCNNYHSKCSLYLMRQLSQTPLHERRGVHLTSYINLEFDDMYSVSLLEELVGSEVPIDTVKSLITSFKDLEFDDTYKNEPLPLDVYFGQLTTDEETCIE | not soluble |
| MQIYLSTLTELDYDKSLNSIEESFDDNPETSWQARAKVKHLRKSPCYNFELEVIAKNENNDVVGHVLLIEVEINSDDKTYYGLAIASLSVHPELRGQKLGRGLVQAVEERAKAQEYSTVVVDHCFDYFEKLGYQNAAEHDIKLEFGDAPLLVKYLWDNLTDAPHGIVKFPEHFY | not soluble |
| MQKEFFQELQDILYEKNITIKFHSFQNFYEDFKSHKFIFNHEHQSIFKKNTSQQITLFHPTRIRRPKFLNSTHALAKIIHSVAHIEFNAINLALDASYRFKNLPLQFYYDWLEVADEEIKHFKLLNSALEELGYKYGDFPVHDNLESALEATKDSLSFRMGIVHRGLEAKGLDANPFVVQKLQSSNHSIKNLLMEYLEIILNDEIKHVKKGDTWWKFANQNKYNFIELCKTFKQFSLAGKKLNIQARIKAGFTQEECEVIEKFYSLEHHHHHH | not soluble |
| MQKGVYIMNSTSSIITIGREYGSGGRQIGQEVAKYFGIKCYDKELLEHAANDSGICKELFEHHDEKPTNSFLYSLVMDTYSFGYSSSGFSDMPMNHKIFLAQFDAIKKLAGEGPCVMVGRCADYALADWNDCFSIFVHADLDWRINRIASKHGKTPKEAKDMITKTDKSRASYYNYYTNKKWGAARSYNLCIDSGKLGIDYATEAIIESIKIFDRTKISK | not soluble |
| MQKKYYEDSHQDSYLLGVKEKDEVLLTALMRKIKNHTGDVYEIMGGPLVDFENENNNQIIAFFLKELHKYLKKQHAYYLRIVPNEKTQRVENNGKVVNYDLKNYSSLYFAEGFIYRSFEQVGYGFATPHYEYQKRIEGLNKKTLFQSYSKKTQYSIKKTYEFGITTRNISYDELEMFHENTTKTAKRLGFYDKELSYYQSVYRTFGDNAKFMIAEINLSDYIGHFQEIIRNLKDKIDQMILIDSKREKPTKTRQIKELRSQVEQHEKRIVQAKKLIEQYGKKINLAGALFFIQPQEVSYMFSYTNAEFKNFYGPYRTQADMLEFALKEKVPVYNFYGVSGDRSGHDGVYEFKKGFQGYMVDNMGAFILPINKFRYQFLQTIKKIIRRR | not soluble |
| MQKMDCQAIGYGYIIIPKALLKEQLIDCSPHEGEIEAFLKLLVKVNYSETKLTDHQRRTIVCKRGESLHSYRSWSAIFHWPTSRTYRFIQQLKTNGIIEIIPHNDTTALHIRVVNYENWTNISALLNEKKENTQKASNEKFRLFWDDYHNILQLPKENIAKAQRIWKKLSEKEQQLAIDHIEEYYYHQTNMKFTLHACSYLSNKAFLNEYEY | not soluble |
| MQKQLLLGVEAIAQAALDAGISGVYAYPGTPSTEITEHIQNSRMAKERNVHREWAANEKTAMESALGMSYAGKRALVCMKHVGMNVAADCFMNAAITGANGGMVIVAADDPSMHSSQNEQDSRVYGQFAMIPVMEPSNQQEAYDMTRLAFDLSERLGTPVMMRITTRLAHSRAGVVQTEPIGENELHLP | not soluble |
